According to article PMC9958131 (Nature Communications, 2023):

B1: Tubulin beta-4A chain (protein, UniProt P04350 1-444, looked up)
Tubulin beta-4A chain: MREIVHLQAGQCGNQIGAKFWEVISDEHGIDPTGTYHGDSDLQLERINVYYNEATGGNYVPRAVLVDLEPGTMDSVRSGPFGQIFRPDNFVFGQSGAGNNWAKGHYTEGAELVDAVLDVVRKEAESCDCLQGFQLTHSLGGGTGSGMGTLLISKIREEFPDRIMNTFSVVPSPKVSDTVVEPYNATLSVHQLVENTDETYCIDNEALYDICFRTLKLTTPTYGDLNHLVSATMSGVTTCLRFPGQLNADLRKLAVNMVPFPRLHFFMPGFAPLTSRGSQQYRALTVPELTQQMFDAKNMMAACDPRHGRYLTVAAVFRGRMSMKEVDEQMLSVQSKNSSYFVEWIPNNVKTAVCDIPPRGLKMAATFIGNSTAIQELFKRISEQFTAMFRRKAFLHWYTGEGMDEMEFTEAESNMNDLVSEYQQYQDATAEEGEFEEEAEEEVA
B2: Kininogen-1 (protein, UniProt P01042 19-644, looked up)
Kininogen-1: QESQSEEIDCNDKDLFKAVDAALKKYNSQNQSNNQFVLYRITEATKTVGSDTFYSFKYEIKEGDCPVQSGKTWQDCEYKDAAKAATGECTATVGKRSSTKFSVATQTCQITPAEGPVVTAQYDCLGCVHPISTQSPDLEPILRHGIQYFNNNTQHSSLFMLNEVKRAQRQVVAGLNFRITYSIVQTNCSKENFLFLTPDCKSLWNGDTGECTDNAYIDIQLRIASFSQNCDIYPGKDFVQPPTKICVGCPRDIPTNSPELEETLTHTITKLNAENNATFYFKIDNVKKARVQVVAGKKYFIDFVARETTCSKESNEELTESCETKKLGQSLDCNAEVYVVPWEKKIYPTVNCQPLGMISLMKRPPGFSPFRSSRIGEIKEETTVSPPHTSMAPAQDEERDSGKEQGHTRRHDWGHEKQRKHNLGHGHKHERDQGHGHQRGHGLGHGHEQQHGLGHGHKFKLDDDLEHQGGHVLDHGHKHKHGHGHGKHKNKGKKNGKHNGWKTEHLASSSEDSTTPSAQTQEKTEGPTPIPSLAKPGVTVTFSDFQDSDLIATMMPPISPAPIQSDDDWIPDIQIDPNGLSFNPISDFPDTTSPKCPGRPWKSVSEINPTTQMKESYYFDLTDGLS

System: recombinant human PAD2 and PAD4
Experiment: Citrullination site mapping by trypsin digestion and mass spectrometry; protein-level modifications over native, PAD2- and PAD4-citrullinated samples combined
Assay type: biochemical
Conditions: trypsin digest, Sequest HT search; co-identified proteins in the fibrinogen and vimentin samples (native, PAD2-cit, PAD4-cit); not split by sample or enzyme
Source text: Description: Raw mass spectrometry data for proteolytic mapping of fibrinogen, vimentin, and hnRNP A2/B1 by cathepsins B, S, and H (sheets 1-6); citrullination site mapping of fibrinogen and vimentin by trypsin digestion (sheets 7-8); and the natural antigen processing assay with native, PAD2-citrullinated (PAD2-cit), and PAD4-citrullinated (PAD4-cit) fibrinogen (sheets 9-11).

Molecule | Modifications (Deamidated [R...] = citrullinated arginine positions found)
B1 | Deamidated [R2]
B2 | Deamidated [R269; R389; R392]
